{
  "source": "paper doi:10.1101/2025.01.31.636011",
  "about": "“Discovery of a distinct BAM complex in the Bacteroidetes” (bioRxiv, 2025)",
  "binders": {"B1": {"name": "PgBamG (PGN_1735) with a C-terminal 7His-tag (natural protein)", "chain": "CDDDLSPIGGSIQPPSDPVSARVDTLEFSVKTIPMGDIYNRTNYTLLGDLTDPEYGDLKADYIMQFKSPRNFKFKYPPKDGKIDSVKLSINYDSWAGDSTSIMKVSIYKINKAIPPSYYSTQELASLLDETQIIASQTFKAGNDSAFHRVRIPLPNEIGQKIYDLSVNNPSVFDTQESFYNNVLGGLYVTTTTGTGVVLSVYNTQMAIFYSYKVAADSTATASETFVNTSESYQVNHIKNSQISHLLQENDSLSCVKSPAGVMTQLTISKEQFTDAFTSNLSSSLAWQIGEAQFNISASKPSEGLMLSPPSYLLLLPQDSVRNFFEQEQTELMQPRTAFLSTIYNIKKREYRFSNISRLLMEHIKNNTEKTPEGKPYITKDLVLVLLPVKRQVAGASNSLYTSQLNNFMFPSGVKLQLGKKNKTARIGVYSMTYTDN", "modifications": "tri-acylated lipid anchor; O-glycosylation, 7 sites", "notes": "also called His-tagged BamG; source: P. gingivalis expressing C-terminally His-tagged BamG (homologous recombination), membranes solubilised in DDM; not shown: His7, C-terminal, kept"}, "B2": {"name": "BtBamG (Bt4306) (natural protein, UniProt Q89ZS0 18-542, looked up)", "chain": "CDDNTGGLGLGMFPGNDQNIKGKLSTFDVTTESVKTGDIYAKTNIGYIGKFTDETFGTYQAGFLAQLNCPDGLTFPEPYKEVTDASGNVISATGRMVVDDKDPENKDVTFIKDGNQIIGNIRAVELYLWYDSYFGDSLTACRLSVYELGGNGKETLNLDNAYYTDINPEDFYDSQNILGTKAYTAVDLSVKDSIRNLSTYVPSVHIAFKEDIATRVGGNILTAARKAKNADKEFNSQLFREAFQGIYVKSDYGDGTVLYIDQPQMNVVYKCYATDSITGKKLQKKDGSGKDSTYYSYRVFATTREVIQANQLKNDPERIDALIKEDKNTYLKSPAGIFTEATLPISDIQNELTGDTLNAVKLTFTNYNQTGDKKFGMAIPSTVMLVRKKFQDSFFKDNKLSDGVSSYLTSHTSSTNQYVFSNITKLVNACIAEKEEAKKNAGSSWDETKWLQENPDWNKVVLIPVLVTYDSSNTTTGQANIIRIQHDLKPGYVRLKGGSLGKTNPDYKLKLEVISTDFGLTTKSN", "modifications": "tri-acylated lipid anchor on the N-terminal cysteine; O-glycosylation (glycan on Ser309)", "notes": "also called Bt4306/BamG"}, "B3": {"name": "BtBamF (Bt4367) (natural protein, UniProt Q89ZL0 23-431, looked up)", "chain": "QNNTNSPYTRYGYGDLSDQSFGNSKAMGGIAFGLRDGAQINPTNPASYTAIDSLTFLFEGGVSLQNMNISGGGLKLNAKNASFDYLAMQFRLAPWMAMSVGLLPYSNVGYTVSDSQTTDNGLAYSRSFTGDGGLHQMYVGAGVKVLKNLSVGVNASYFWGDITRTRGMFYPGTSSYDSYQRKMVTSISDYKLDFGAQYTQALNKKSSLTIGAVYSPKHKLNNDYTSIVIMGASSSSYGTEYKDVLDATFELPNTFGVGFTYNYDKRLTVGADYSLQQWSKTNFGVVTSDENVRQDFNETFTYCDRTKISVGAEYIPNLIGRSYFAHIKYRLGAYYTTPYYKIDGKKASREYGVTAGFGLPVPRSRSILSISGQFVRVKGLETNMVNENIFRVSIGLTFNERWFFKRRVE", "modifications": "O-glycosylation (glycan on Ser75)"}, "B4": {"name": "BtBamI (Bt3612) (natural protein, UniProt Q8A1P7 20-196, looked up)", "chain": "CSETEEVGKYDNWRARNEAFIDSLANVYATASGRGGLERIEMLTAPGNYIYYKEMEPMTDHVVKAGNPKYTDYVKVYYKGTNILGEYFDGNFKGDNPVVDGKDPSEGDSPTTIFQVSGVITGWGEVLQRMEVGDRWKVYIPWDYAYGSSGTTGILGYSALVFDITLLDFANTEAELK", "modifications": "O-glycosylation (sites not given)"}},
  "settings_in_all_cases": "both partners purified",
  "key": {"PgBamA (PGN_0299)": {"biological_target": "T1, PgBamA (PGN_0299) (Porphyromonas gingivalis (endogenous in …, UniProt B2RHH3 20-891))", "T1 construct": "also called P. gingivalis BamA; source: endogenous, P. gingivalis expressing His-tagged BamG, membranes solubilised in DDM", "T1 sequence": "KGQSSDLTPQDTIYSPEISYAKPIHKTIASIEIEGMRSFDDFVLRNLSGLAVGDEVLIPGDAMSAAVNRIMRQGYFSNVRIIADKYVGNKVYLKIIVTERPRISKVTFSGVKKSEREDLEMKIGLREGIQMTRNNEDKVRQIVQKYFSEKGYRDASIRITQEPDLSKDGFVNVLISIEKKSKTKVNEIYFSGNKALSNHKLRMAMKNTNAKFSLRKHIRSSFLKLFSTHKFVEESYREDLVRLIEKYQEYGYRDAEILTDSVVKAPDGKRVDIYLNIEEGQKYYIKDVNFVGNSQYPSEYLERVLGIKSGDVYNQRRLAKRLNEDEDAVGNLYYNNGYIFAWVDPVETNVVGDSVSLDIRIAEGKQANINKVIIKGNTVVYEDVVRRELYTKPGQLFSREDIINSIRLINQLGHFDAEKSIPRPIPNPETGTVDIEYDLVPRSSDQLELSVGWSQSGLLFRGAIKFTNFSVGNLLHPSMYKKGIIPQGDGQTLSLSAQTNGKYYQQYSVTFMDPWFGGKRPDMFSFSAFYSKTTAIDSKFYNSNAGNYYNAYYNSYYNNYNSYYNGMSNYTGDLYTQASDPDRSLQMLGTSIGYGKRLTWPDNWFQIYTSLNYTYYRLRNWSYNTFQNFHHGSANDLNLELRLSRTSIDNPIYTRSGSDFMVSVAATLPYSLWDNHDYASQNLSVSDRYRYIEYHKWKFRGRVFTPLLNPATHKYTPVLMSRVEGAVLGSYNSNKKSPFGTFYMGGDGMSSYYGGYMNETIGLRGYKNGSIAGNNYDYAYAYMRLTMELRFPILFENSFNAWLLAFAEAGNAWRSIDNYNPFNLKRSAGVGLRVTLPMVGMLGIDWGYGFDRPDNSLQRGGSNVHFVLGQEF", "experiment": "cryo-EM structure; PgBAM complex co-purified through C-terminally His-tagged PgBamG from P. gingivalis membranes, in DDM, 4.9 mg/ml"}, "[1]": {"biological_target": "T2, BtBamA (Bt3725) with an N-terminal His7 tag (Bacteroides thetaiotaomicron, UniProt Q8A1E1 20-885)", "T2 construct": "also called BtBamAhis; BamAhis", "T2 sequence (looked up)": "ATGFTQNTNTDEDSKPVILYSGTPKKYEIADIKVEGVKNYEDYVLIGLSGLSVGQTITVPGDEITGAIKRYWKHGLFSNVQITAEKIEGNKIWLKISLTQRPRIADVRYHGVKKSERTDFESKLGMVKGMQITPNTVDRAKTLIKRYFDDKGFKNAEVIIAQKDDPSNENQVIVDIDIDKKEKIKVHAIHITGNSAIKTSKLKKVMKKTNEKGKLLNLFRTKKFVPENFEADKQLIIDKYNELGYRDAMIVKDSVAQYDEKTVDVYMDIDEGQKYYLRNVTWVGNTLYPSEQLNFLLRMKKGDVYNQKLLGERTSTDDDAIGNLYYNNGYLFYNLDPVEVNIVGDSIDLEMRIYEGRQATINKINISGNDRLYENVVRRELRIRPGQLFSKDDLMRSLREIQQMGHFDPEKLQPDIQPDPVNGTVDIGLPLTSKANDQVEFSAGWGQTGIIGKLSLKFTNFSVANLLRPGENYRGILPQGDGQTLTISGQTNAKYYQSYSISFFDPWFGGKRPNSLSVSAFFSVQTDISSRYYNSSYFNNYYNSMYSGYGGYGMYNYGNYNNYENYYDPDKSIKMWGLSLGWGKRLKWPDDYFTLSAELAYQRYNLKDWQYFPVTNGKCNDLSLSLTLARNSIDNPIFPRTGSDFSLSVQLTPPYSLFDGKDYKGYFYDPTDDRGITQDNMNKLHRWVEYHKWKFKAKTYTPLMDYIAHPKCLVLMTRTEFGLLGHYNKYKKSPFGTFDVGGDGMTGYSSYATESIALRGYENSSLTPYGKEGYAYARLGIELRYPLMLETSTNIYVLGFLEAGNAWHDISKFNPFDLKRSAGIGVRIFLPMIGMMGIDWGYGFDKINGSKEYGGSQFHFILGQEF", "experiment": "cryo-EM structure; BtBAM complex co-purified through BtBamAhis from B. theta membranes, in DDM, 8 mg/ml; two 3D classes and a composite model"}, "BtBamG (Bt4306) [2]": {"biological_target": "B2", "experiment": "cryo-EM structure"}, "BtBamG (Bt4306) [3]": {"biological_target": "B2", "experiment": "cryo-EM structure; BtBAM complex co-purified through BtBamAhis from B. theta membranes, in DDM, 8 mg/ml; two 3D classes and a composite model"}},
  "data": [
    {"binder": "B1", "values": [
      {"measurement": "binding result", "setting": "PgBamA (PGN_0299)", "value": "binds"}
    ]},
    {"binder": "B2", "values": [
      {"measurement": "binding result", "setting": "[1]", "value": "binds"}
    ]},
    {"binder": "B3", "values": [
      {"measurement": "binding result", "setting": "BtBamG (Bt4306) [2]", "value": "binds"}
    ]},
    {"binder": "B4", "values": [
      {"measurement": "binding result", "setting": "BtBamG (Bt4306) [3]", "value": "binds"}
    ]}
  ]
}
